“And” between values parts separate entries of the source, which are not always exact repeats. Identical values can stand only once.
Tests used:
[1] = target: MBP-RAMP2 ECD [L106R]-(GSA)3-CLR ECD-H6 tethered fusion protein (UniProt O60895); assay: AlphaScreen or HTRF; competition assay: purified tethered receptor ECD fusion protein with biotin-CGRP or biotin-AM (100 nM each in Figure 6), unlabelled competitor peptide varied; apparent affinities
[2] = target: MBP-RAMP1 ECD-(GSA)3-CLR ECD-H6 tethered fusion protein (UniProt O60894); assay: as above

With AM(22–52)NH2 (peptide) the IC50 [1] was 5000 to 15000 nM and the pIC50 [1] was 4.92 and 4.84.

CGRP(8–37)NH2 (peptide) showed an IC50 [2] of 2000 nM and a pIC50 [2] of 5.01.

AM(37–52)NH2 (peptide) was tested, and the pIC50 [1] was 5.

“CGRP(27–37)NH2 [D31, P34, F35] (peptide)” showed an IC50 [2] of 460 nM and a pIC50 [2] of 6.79.

CGRPmut [F37Y] (peptide) gave a pIC50 [1] of 4.79 and a pIC50 [2] of 6.24.
